Measured values taken from the nanobody polyreactivity screen of Harvey et al. (2022).

Assay: yeast display, Sf9 membrane polyspecificity reagent, FACS + sequencing; frameworks hold sequencing errors
Outline: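 After 36–48 hours of galactose induction, yeast (Saccharomyces cerevisiae BJ5465) displaying a synthetic nanobody library were stained at 4 °C for 1 hour with 10% biotinylated, detergent-solubilized Sf9 membrane reagent. Streptavidin microbeads enriched the stained cells before FACS sorting into low and high (top ~1%) gates on anti-HA and streptavidin fluorescence. Each clone's polyreactivity label reflects its gate of origin.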

Q: For “QVQHVESGGGLVQAGGSLRLSCAASGSIFAGYAMGWYRQAPGKEWELVAAISRRGGRKYYADSVKGRFTISRDNAKNTVYLQMNSLKPEDTAVYYCAVTTPRGPYGYDYWGQGTQVTVSS”, which “polyreactivity (PSR sort gate)” value is on record?
A: The value was “high polyreactivity”.

Q: For “QVQLVESGGGLVQAGGILRLSCAASGSIFPNYAMGWYRQAPGKEREFVAAISSSGGSTYYADYVKGRFTISRENAKNTVYLQMNSLKPDDTAVYYCAAAYVGYYYSRGFDYWGQGTQVTVSS”, which “polyreactivity (PSR sort gate)” value is on record?
A: The value was “high polyreactivity”.

Q: With “QVQLVESGGGLVQAGGSLRLSCAASGGIFPQYAMGWYRQAPGKERQLVAAISRRGGRTYYADSVKGRFTISRDNAKNTDYLQMNSLKPEDTAVYYCNAGGSSGYDYWGQGTQVTVSS” as the sequence, how does the “polyreactivity (PSR sort gate)” value read?
A: The value was “high polyreactivity”.

Q: With “QVQLVESGGGLVQAGGSLRLSCAASGIIFGRYAMGWYRQAPGKEREFVAAITWRVGTTYYADSVKGRFTISRDNAKNTVYLQMNSLKPEDTAVYYCAARSRTGRYDYWGQGTQVTVSS” as the sequence, how does the “polyreactivity (PSR sort gate)” value read?
A: Its value is “high polyreactivity”.

Q: Which “polyreactivity (PSR sort gate)” value does the source give for “QVQLVESGGGLVQAGGSLRLSCAASGSISGYYAMGWYRQAPGKERELVASIRYTGARTYYADSVKGRFTSSRDNAKNTVYLQMNRLKPEDTAVFYCAADKVQYEGDAYGPPQYDYWGQGTQVTVSS” here?
A: Its value is “low polyreactivity”.

Q: For “QVQLVESGGGLVQAGGSLRLSCAASGITFVANAMGWYRQAPGKETELVAGITQTGGSTYYADSVKGRFTISRDKAKNTVYLQMNSQKPEDTAVYYCAATYRRLRYGKLYYYWGQGTQVTVSS”, which “polyreactivity (PSR sort gate)” value is on record?
A: Its value is “high polyreactivity”.

Q: Which “polyreactivity (PSR sort gate)” value does the source give for “QVQLVESGGGLVQAGGSLSLSCAASGPTFGEYVMGWYRQAPGKERELVASISRRGGSTYYADSVKGRFTISRDNAKNTVYLQMNSLKPEDTAVYYCAKYRTQWSKNLYPYGFDYWGQGTQVTVSS” here?
A: Its value is “low polyreactivity”.

Q: With “EVQQVESGGGLVQPGGSLRLSCAASGYIYSRYRMGWCRQAPGKGREFVAAISGGSSTNYADSVKGRFTISRDNSKITVYLQMKSLRAEDTAVYYCAAYMIDSDPRVFWGQGTQVNVSS” as the sequence, how does the “polyreactivity (PSR sort gate)” value read?
A: Its value is “low polyreactivity”.

Q: Which “polyreactivity (PSR sort gate)” value does the source give for “QVQLVESGGALVQAGGSLRLSCGASGSTFHPYAMGWYRQAPGKERELVGAITWRVGSTYYADSVKGRFTISRDNAKNTVYLQMNSLKPEETAVYYCAVSYLSTLVRSRYDYWGQGTQVTVSS” here?
A: Its value is “low polyreactivity”.

Q: Which “polyreactivity (PSR sort gate)” value does the source give for “QVQLVESGGGLVQAGGSLRLSCAASGLIQPYYTMGWYRQAPGKERELVAAIRRTTGSTFYADSVKGRFTISRDNAKNTVYLQMNSLKPEETAVYYCNVRRTPYSHWTGGGMDYWGQGTQVTVSS” here?
A: The value was “high polyreactivity”.

Q: With “QDQLVESGGGLVQAGGSLRLSCAASGFTFPVYAMGWYRQAPGKEWELVAAITRGGSTNYADSVKGRFTISRDNAKNTVYLQMNSLKPEDTAVYYCNADYAVAYHPDLGDYWGQGTQVTVSS” as the sequence, how does the “polyreactivity (PSR sort gate)” value read?
A: Its value is “low polyreactivity”.

Q: For “QVQLVESGGGLVQAGGSIRLSCAASGRTFGYYAMGWYRQAPGKERELVAAITRTGGSTHYADSVKGRFTISRDNAKNTVYLQMNSLKPEDTAVYYCALDYRYTIPYDYWGQGTQVTVSS”, which “polyreactivity (PSR sort gate)” value is on record?
A: The value was “low polyreactivity”.

Q: Which “polyreactivity (PSR sort gate)” value does the source give for “QVQLVESGGGLVQAGGSLRLSCAASGRTFGGNAMGWYRQAPGKERELVAAISLSGGTTYYADSVKGRFTISRDNAKNTVYLQMNSLKPEDTAVYYCAADTAGYYDEDKDGDYWGQGTQVTVSS” here?
A: The value was “low polyreactivity”.

Q: For “QVQLVESGGGLVQAGGSLRLSCAASGYIFDIYAMGWYRQAPGKERELVAVITRSGGGTYYADSVKGRFTISRDNAKNSVYLQMNSLKPEDTAVYYCAAESYVYGGSDYDYWGQGTQVTVSS”, which “polyreactivity (PSR sort gate)” value is on record?
A: The value was “low polyreactivity”.

Q: With “QVQLVESAGGLVQAGGSLRLSCAASGLIFEYNAMGWYRQAPGKERELVAAITTNGGSTYYADSVKGRFTISRDNAKNTVYLQINSLKPEDTAVYYCAALGLHQVIEYDYWGQGTQVTVSS” as the sequence, how does the “polyreactivity (PSR sort gate)” value read?
A: The value was “low polyreactivity”.

Q: For “QVQLVESGGGLVQAGGSLRLSCAASGRILGRNAMGWYRQAPGKEREFVAGISYSGTSTYYADSVKGRFTISRDNAKNTVYLQMNSLKPEDTAVYYCAVYTGRQPRVSGKYYYWGQGTQVTVSS”, which “polyreactivity (PSR sort gate)” value is on record?
A: The value was “high polyreactivity”.

Q: Which “polyreactivity (PSR sort gate)” value does the source give for “QVQLVESGGGLVQAGGSLRLSCAASGRIFKRYVMGWYRQAPGKERELVAAISQRGGSTNYADSVKGRFTISRDNAKNTVYLQMNSLKPEDTAVYYCAAGFFSRYDYWGQGTQVTVSS” here?
A: Its value is “high polyreactivity”.

Q: With “QVQLVESGGGLVQAGGSLRLSCAASGITFSYYALGWYRQAPGKERELVAVISAGGGTTYYADSVKGRFTISRDNAKNTVYLQMNSLKPEDTAVYYCAVKIVVWWGEYDYWGQGTQVTVSS” as the sequence, how does the “polyreactivity (PSR sort gate)” value read?
A: The value was “high polyreactivity”.

Q: Which “polyreactivity (PSR sort gate)” value does the source give for “QVQLVESGGGLVQAGGSLRLSCAASGRIIGYYAMGWYRQAPGKERELVATINYSGGRTYYADSVKGRFTISRDNAKNTVYLQMNSLKPEDTAVYYCNARESGRGSHDDYWGHGTQVTVSS” here?
A: Its value is “high polyreactivity”.

Q: Which “polyreactivity (PSR sort gate)” value does the source give for “QVQLVESGGGLVQAGGSLRLSCAASGFTFHGYTMGWYRQAPGKERELVAAITSGGGTNYADSVKGRFTISRVNAKNTVYLQKNSLKPEDTAVYYCAAVGTVPRKQRYHSYIDYDYWGQGTQVTVSS” here?
A: The value was “low polyreactivity”.

Q: Which “polyreactivity (PSR sort gate)” value does the source give for “QDQLVESGGGLVQAGGSHRLSSAASGSILGAYAMGWYRQPPVKERELVAAISRNGGSTYYADSVKGRFTISRDNAKNTVYLQMNRLKPEDTAVYYCAAYYYDNEYDYWGQGTQVTVSS” here?
A: Its value is “high polyreactivity”.

Q: With “QFQLVESGGGLVQAGGSLRLSCAASGRIFRSNAMVWYRQAPGKERELVAAISWSGGSTYYADSVKGRFTISRDNAKNTVYLQMNSLKPEDTAVFYCAARYRGSRYDYWGQGTQVTVSS” as the sequence, how does the “polyreactivity (PSR sort gate)” value read?
A: The value was “high polyreactivity”.

Q: Which “polyreactivity (PSR sort gate)” value does the source give for “QVQLVESGGGLVQAGGSLRLSCAASGNTLTYNVMGWYRQGPGKERELVAAISGRGGRTYYADSVKGRFTISRDNAKNTVYLQMNSLKPEATAVYDCATRDRAGYYYWGQGTQVTVSS” here?
A: Its value is “high polyreactivity”.

Q: With “QVQLVESGGGLVQAGGSLRLSCAASGSIFGYYAMGWYRQAPGKERELVASITSDTSTNYADSVKGRFTISRDNAQNTVYLQMNSLKPEDTAVYYCNARIAKWKRGYSSTFDYWGQGTQVTVSS” as the sequence, how does the “polyreactivity (PSR sort gate)” value read?
A: The value was “low polyreactivity”.

Q: For “QVQLVESGGCLVQAGGSLRLICAASGSTFRRYAMGWYRQAPGKERELVATISKSGGSTYYADSVKGRFTISRDNAKNTVYLQMNSLKPEDTAVYYCAARSFFYRVSDRRAYIDTNGYWGQGTQVTVSS”, which “polyreactivity (PSR sort gate)” value is on record?
A: The value was “high polyreactivity”.

Q: With “QVQLVESGGGLVQAGGSLRLSCAASGSTFYYYVMGWYRQAPGKERELVAAISSGGHTNYADSVKGRFTISRDNAKNTVYLQMNILKPEDTAVYYCAAKPWRGTLLRYGYWGQGTQVTVSS” as the sequence, how does the “polyreactivity (PSR sort gate)” value read?
A: Its value is “high polyreactivity”.

Q: Which “polyreactivity (PSR sort gate)” value does the source give for “QVQLVESGGGLVQAGASLRLSCAASGGTIAPYAMGWYRQAPGNVRELVAAITSAGTRTYYADSVKGRFTISRENAKNTVYLQMNRLKPEDTAVYYCAAGGGHSMYYWGKGTQVTVSS” here?
A: The value was “high polyreactivity”.

Q: For “QVQLVESGGGLVQAGGSLRLSCAASGRTFSYNAMGWYRQAPGTERELVAAISGGGSTDYADSVKGRFTISRDNAKNTVYLQMNSLKPEDTAVYYCAAGWYVYTFFEFYVFDGDYWGQGTQVTVSS”, which “polyreactivity (PSR sort gate)” value is on record?
A: The value was “low polyreactivity”.

Q: Which “polyreactivity (PSR sort gate)” value does the source give for “QVQLVESGGGLVQAGGSLRLSCAASGSTFYRYAMGWYRQAPGKERELVAAISSDGTTYYADSVKGRFTISRDNAKNTVYLQMNSLKPEDTAVYYCAKRGYYRSRRYDYWGQGTQVTVSS” here?
A: The value was “high polyreactivity”.

Q: Which “polyreactivity (PSR sort gate)” value does the source give for “QVQLVESGGGLVQAGGSLRLTCAASGGTFIKNAMGWYRQAPGKERELVAAISWSGGRTYYADSVKGRFTITRDNPKNTVYLPMNSLKPEDTAVYYCNARYAGRLSYSYEYWGQVTQVTVSS” here?
A: Its value is “high polyreactivity”.

Q: For “QVQLVESAGGLVQAGGSLRLSCAASGRTLTFKTMGWYRQAPGKERELVAGISYSGGSTYYADSVKGRFTISRDNAKNTVYLQMNSLKPEDTAVYYCNAVRVYRRRYDSWGQGTKVTVSS”, which “polyreactivity (PSR sort gate)” value is on record?
A: Its value is “high polyreactivity”.
